Test results from publication PMC12622545, “An Allele of Glutamate Formiminotransferase Triggers 5‐Methyl‐Tetrahydrofolate‐to‐MeFox Conversion and Facilitates Folate Biofortification in Maize” (Advanced Science, 2025).

Legend:
Assay in all cases: LC-MS of MeFox formation, initial rates, Michaelis-Menten fit
Details in all cases: 50 mM sodium phosphate pH 7.0, 10 mM beta-mercaptoethanol, 30 °C, 0.5 µM protein
SbGFT = molecular target: T1, SbGFT (Sorghum bicolor, UniProt C5WU82); type: biochemical
T1 construct: gene SORBI_3001G181300; synthetic gene, C-terminal 6xHis tag, E. coli BL21(DE3); monomer; 317 residues (apo crystal: A6-D317, C260S/C314S)
T1 sequence (C5WU82 1-317): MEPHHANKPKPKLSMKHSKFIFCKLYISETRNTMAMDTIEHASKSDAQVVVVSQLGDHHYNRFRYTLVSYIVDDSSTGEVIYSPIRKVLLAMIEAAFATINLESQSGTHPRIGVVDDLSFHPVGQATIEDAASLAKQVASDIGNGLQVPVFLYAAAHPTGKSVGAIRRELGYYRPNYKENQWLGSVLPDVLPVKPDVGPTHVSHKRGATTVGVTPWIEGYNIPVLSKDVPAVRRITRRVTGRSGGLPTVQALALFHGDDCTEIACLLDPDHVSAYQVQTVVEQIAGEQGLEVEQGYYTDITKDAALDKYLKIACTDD

[1] = substrate: CN1c2c(nc(N)[nH]c2=O)NC[C@@H]1CNc1ccc(C(=O)N[C@@H](CCC(=O)O)C(=O)O)cc1; type: biochemical, Zea mays
[2] = substrate: CN1c2c(nc(N)[nH]c2=O)NC[C@@H]1CNc1ccc(C(=O)N[C@@H](CCC(=O)O)C(=O)O)cc1; type: biochemical, Zea mays; remark: listed apart in the source
Excerpt: LC-MS of MeFox formation, initial rates, Michaelis-Menten fit on ZmGFT-Qi319 | reduced approximately by sixfold for the mutant ZmGFT‐Qi319^G232N

CN1c2c(nc(N)[nH]c2=O)NC[C@@H]1CNc1ccc(C(=O)N[C@@H](CCC(=O)O)C(=O)O)cc1 [5-M-THF]
K m (SbGFT): Converting analysis of wild‐type SbGFT and its mutant SbGFT^G219N

B1: ZmGFT-Qi319 (Zea mays) (protein)
chain: MEPHHANKPKPRPKLSAKHSKFISCKLYISESRNATAVDAVERASKSDPQVVVVSQFGDHHYNRFRYTLVSYIVVDDGGGGGSSAAGEATVVVHSPIRKVLLAMIEAAFSSIDLESQSGAHPRMGVVDDLSFHPVGQATVEDAASLARQVASDIACIAAVPVFLYAAAHPAGKSVGAVRRELGYYRPNYRGNQWSGSVLPDVLPVKPDVGPAHVVSHKRGATTVGVTPWIEGYNVPVLCKDVATVRRITRGVTGRSGGLPTVQALALFHGDDCTEIACLLDPDHASAYQVQTVVEQIAGDQGLEVEQGYYTDITKDEALDKYLKIACADD
notes: natural allele; C-terminal 10xHis tag, modified pFastBac1, Sf-9 insect cells; monomer
Km [1]: 153.1 ± 38.2 µM | kcat [1]: 0.0317 ± 0.00167 s⁻¹ | kcat/Km [1]: 207 M⁻¹ s⁻¹

B2: ZmGFT-Qi319 (Zea mays; G232N) (protein)
chain: MEPHHANKPKPRPKLSAKHSKFISCKLYISESRNATAVDAVERASKSDPQVVVVSQFGDHHYNRFRYTLVSYIVVDDGGGGGSSAAGEATVVVHSPIRKVLLAMIEAAFSSIDLESQSGAHPRMGVVDDLSFHPVGQATVEDAASLARQVASDIACIAAVPVFLYAAAHPAGKSVGAVRRELGYYRPNYRGNQWSGSVLPDVLPVKPDVGPAHVVSHKRGATTVGVTPWIENYNVPVLCKDVATVRRITRGVTGRSGGLPTVQALALFHGDDCTEIACLLDPDHASAYQVQTVVEQIAGDQGLEVEQGYYTDITKDEALDKYLKIACADD
notes: as for B1
Km [2]: 2209.0 ± 1046.0 µM | kcat [2]: 0.075 ± 0.0533 s⁻¹ | kcat/Km [2]: 34 M⁻¹ s⁻¹

B3: ZmGFT-B73 (Zea mays) (protein)
chain: MEPHHANKPRPKLSATKHSKFISCKLYISESRNATAVDAVERASKSDPQVVVVSQFGDHHYNRFRYTLVSYIVVVDGGGSSAAGEATVVHSPIRKVLLAMIEAAFSSIDLESQSGAHPRIGVVDDLSFHPVGQATIEDAASLARQVASDIACIAAVPVFLYAAAHPAGKSVGAVRRELGYYRPNYRGNQWSGSVLPNVLPVKPDVGPAHVVSHKRGATTVGVTPWIENYNVPVLCKDVATVRRITRGVTGRSGGLPTVQALALFHGDDCTEIACLLDPDHASAYQVQTVVEQIAGDQGLEVEQGYYTDITKDEALDKYLKIACADD
notes: C-terminal 10xHis tag, modified pFastBac1, Sf-9 insect cells; monomer; annotated 326 residues; Asn228
Km [1]: 3108.0 ± 2675.5 µM | kcat [1]: 0.0783 ± 0.055 s⁻¹ | kcat/Km [1]: 25.2 M⁻¹ s⁻¹

B4: ZmGFT-B73 (Zea mays; N228G) (protein)
chain: MEPHHANKPRPKLSATKHSKFISCKLYISESRNATAVDAVERASKSDPQVVVVSQFGDHHYNRFRYTLVSYIVVVDGGGSSAAGEATVVHSPIRKVLLAMIEAAFSSIDLESQSGAHPRIGVVDDLSFHPVGQATIEDAASLARQVASDIACIAAVPVFLYAAAHPAGKSVGAVRRELGYYRPNYRGNQWSGSVLPNVLPVKPDVGPAHVVSHKRGATTVGVTPWIEGYNVPVLCKDVATVRRITRGVTGRSGGLPTVQALALFHGDDCTEIACLLDPDHASAYQVQTVVEQIAGDQGLEVEQGYYTDITKDEALDKYLKIACADD
notes: as for B3
Km [1]: 888.0 ± 490.3 µM | kcat [1]: 0.09 ± 0.0233 s⁻¹ | kcat/Km [1]: 101 M⁻¹ s⁻¹
